A short description of the data set: soluble on expression in E. coli; label from the status in PepcDB or PDB records.
“MIDHTHLRLFQFCDSQFPTGAFSHSFGLETYIQRNIIHDDHTFIAWLKMFLQEQLTYSDGLAMRLVYDALENDDTQKVLHIDKLMFVQNLPKETRVGAKQMGTRMVKLALELYNSPWIAWYHQQMQDKKAKLNPAICFTMLGHHLGVDIETIIDYYLYQNVSSLTQNAVRAIPLGQTAGQKIVTHMIPYIEGTRKQIFELKEADFGMTAPGLELNQMAHENVNVRIFISLEHHHHHH”: the “soluble on expression in E. coli” value was “not soluble”.
The value for “MIDMFHINIPFKKDVIIEMGDCGFVDFAKLAEKTELKIACGNVEFSVVNDQKKVRTDDLYHPWSTIPSSYTDIACKVFDAEPRANVFWGYLQLKASPAKVMQGHNVYGSEDFRLCVEYLLDSLQKAQPELWELLDVGLAEMTRIDCTYSIKCANPDILRQTIKQMGNVSNRYIKPARNSDFETTLYFNRATKANPGAGRSFELCIYTKHDEIAHQLADLKRRARQGDSDRFNRIIDELSKPELQAFAANRLRFEGRAKKRFIQKHVGSANLWQVIRHAEQFEAKNGYRFCEWMFKTLFHDLLESLKGEELELYNDSKIKQLLRDAYSTMTPKLEHHHHHH” was “soluble”; that for “MIDMFPMEKGEEQETYELIVRVFHKYVAPVYSENGVARFLGMLSPEGLSEMNNGKNSFVIVARDQSKIIGMISVINDSHIALFFVSPRYQGKGIGKNILDEAIKNCLNRNPELSAVTVSSSPNSKSFYEEAGFEVIGLEHHHHHH” was “soluble”; that for “MIEFRDVWFWYQEGKTVLKSISFSFSEGTLAIVGPNGSGKTTLVKMLNGLLKPKKGNVLIDGINTKEVSVAELSRIVGYVFQNPDAMFFEENVFKEVAFGPKNLGLNEEEVKKRVRWALEAVGLRGFENRNPFELSGGEKQRLAIACILAMKPKYLVLDEPNTGLDERGLQDLINVIKNLRREGSSIILVTHDIELVLEVADKVLLLKDGELKFFGSTKEFFELDLEGFGLKEPELVKISKDVGINFVRNVEELLKVIGL” was “soluble”.
The value for “MIEIHKKFLEKDELFQFLKVAKYHHSPQNSFEVFTTLAYTGMRAGELLALKWSDIDFENNTISITKTYYNPNNNKKHYQILTRKTESSIGKITVDPHVIQLLKDYKVNVQDTWKNELYVDNNFVFTDVNGYPLVIKKLQLWIKAILKKTDITNKQISTHSFRYTHYALLIEAGVHIKEIQERLRHKDINTTMNIYAKITNSYKKDASQKFSKLEHHHHHH” was “not soluble”; that for “MIEIKQVKTQDEVNYTFVEKLMHTAFPQEERRDTVQQREYSDNNPRFCNNIILENGNSIGMISYWTMGDFYYIEHFAIDPSLRNGGYGKRVLEMIKKQLKGPIVLEVEEPNDEMSTRRIHFYKRLEFTLHKKPYIQPPYRKGDSGLPMLLMTYGDIDMESDFEKVKKTLYKEVYGQEI” was “not soluble”.
On to “MIELEGVPELIDPVMVAAFEGWNDAGDAASTAVAHLDREWKGEVFAALDAEDYYDFQVNRPTVWLDGGVRKITWPTTRLSVVRVGGEKPRDLVLVRGIEPSMRWRSFCNELLAFAHELGVELVVVLGALLGDTPHTRPVPVSGVTSDPDLARTMDLEETKYEGPTGIVGILQEACTHAGVPAVSLWAAVPHYVSQPPNPKATLALLNRLEDLIDVRIPLGELPEDARAWQVGVDQLAAEDSEVAEYVQSLEEARDTAELPEASGEAIAREFERYLRRRDGGGPAAGGHATADGSDGTSYLRDAPGGRTRPPKPPKPEAEDDGPADEGSDDSSED”, for which the “soluble on expression in E. coli” value is “not soluble”.
In the case of “MIEVIFLGTGGIKPTPERNVPSIAIKIGGEIILFDVGEGTLRQMEIARISPMKIKRVFITHFHGDHYLGLPALIQTMSLWKRKDPLHIYGPEGSSTFLQNLLNSGYFAPSFDILVHEISGKSRLKFKEYEVWAFEVSHGVPALGYVFKEKDKRGNFNLKKIKELGLEPGPWMKELERQKIIEINGKIVRLLEVTGPKKRGAKVVYSGDTEPCDEVIEFSRRGTLLIHEATYVNEEDRKDSYHTTIEEACEIWKKSKARKLVLFHRSPRYSFKEYKEKALSICPQAIIPRDFDRIAIEGAGDVLFKIR” it was “soluble”.
Take “MIEVKPETPDDWWEVEALYDLCFAPGRTALSSYRLRDDVPPVAGLSLVARDSDGTLAGAIRFWPVHVGDLDALLLGPVAVHPTHQGEGLGGFLIQEGLEAGREGGWARVMLVGDAPYYSRFGFARLEGVEMPPPTNPDRVLGLEL”: the “soluble on expression in E. coli” value is listed as “not soluble”.
Regarding “MIGMDHLAIGTYEGFLIGYDIDTQPNDPKTTTGCTLRYAYAAHERSIRCIAGSFPILASASVDESIKVYQLDQLQELATLYDLQVPVNSVDIQLQGGLLSGGEDGKLVYYPYGGWSKPKYLKGHKGNVHSVALHPTGQICLSVARDKCLKLWKTNGDCVCSLELPDEAFIVKWTEDGQGWVIATQTSFSVHSLQTGLIQQWEYSTRLVCLCALTNDIFVVGGMDGHLRVGENKPIQVHKVDGGSLVKGIGVGRDGCIYSLSSKGVLEMVAPSRQLEIQNGVVKRYIE”, the “soluble on expression in E. coli” value is “not soluble”.
Consider “MIGPISQINISGGLSEKETSSLISNEELKNIITQLETDISDGSWFHKNYSRMDVEVMPALVIQANNKYPEMNLNLVTSPLDLSIEIKNVIENGVRSSRFIINMGEGGIHFSVIDYKHINGKTSLILFEPANFNSMGPAMLAIRTKTAIERYQLPDCHFSMVEMDIQRSSSECGIFSFALAKKLYIERDSLLKIHEDNIKGILSDGKNPLPHDKLDPYLPVTFYKHTQGKKRLNEYLNTNPQGVGTVVNKKNETIVNRFDNNKSIVDGKELSVSVHKKRIAEYKTLLKV”, for which the “soluble on expression in E. coli” value is “not soluble”.
As to “MIGYLRGLAVIVEDVEFARRLYKEGFYGRFLGYDKVKRDEVEKINAPLILGLYEALYLAEKGRLKVMGEDGREVAPEELAALGRERMRNFDEIYKIYKYFRDLGYVVKSGLKFGALFSVYEKGPGIDHAPMVVVFLEPDKGISATDITRGGRLSHSVRKTWTLATVLRQTGEVVLLGFGWARL”, the “soluble on expression in E. coli” value is recorded as “soluble”.
As for “MIHEASIQHGSFGKMVADWPQEKITELWAYLKKHGSRLGGNTGPYTLRQMGADTFILSNDVEAYLRNCKIIEGGKDTKKSHDAATQAFMQWQKESGRSLTEISQIIAFSTGDNRL”, the “soluble on expression in E. coli” value is reported as “not soluble”.
As for “MIIKDILRENQDFRFRDLSDLKHSPKLCIITCMDSRLIDLLERALGIGRGDAKVIKNAGNIVDDGVIRSAAVAIYALGDNEIIIVGHTDCGMARLDEDLIVSRMRELGVEEEVIENFSIDVLNPVGDEEENVIEGVKRLKSSPLIPESIGVHGLIIDINTGRLKPLYLDE”, the “soluble on expression in E. coli” value is “soluble”.
For “MIIKPRIRGFICTTTHPVGCEANVKEQIAYTKAQGPIKNAPKRVLVVGASSGYGLSSRIAAAFGGGASTIGVFFEKEGTEKKPGTAGFYNAAAFEKLAREEGLYAKSLNGDAFSNEAKQKTIDLIKEDLGQVDMVVYSLASPVRKMPETGELIRSALKPIGETYTSTAVDTNKDVIIEASVEPATEEEIKDTVTVMGGEDWELWINALSDAGVLAEGCKTVAYSYIGTELTWPIYWDGALGKAKMDLDRAAKALNEKLGATGGSANVAVLKSVVTQASSAIPVMPLYIAMVFKKMREEGVHEGCMEQIYRMFSQRLYKEDGSAAEVDDMNRLRLDDWELREDIQQHCRELWPQITTENLKELTDYVEYKEEFLKLFGFGVEGVDYEADV”, the “soluble on expression in E. coli” value is recorded as “not soluble”.
For “MIITDDHMHLYNHLKLKALEQFRDAGGTHVFLVNLLCHHYGIRPTSGKDFREVFERHLSLVEKANKIVKAYAVLGVHPAEITVIGDRIGHEKAAEMMKEALEIAGKYVEEGKAVALKSGRPHYPVSRHVWQLSNDVLRHAFEVAKDVGCAIQLHTESYTKEGMLEIAKMADEVGLKREKVVKHFSPPLIKEFEEIGIFPSVLAGNNNVLKAAEQGNRFTVETDYIDDRKRPGAVLGPKTVPRKVKELIELGYEDIAYKICVENVEKVYGV”, the “soluble on expression in E. coli” value was “not soluble”.
With “MIITQGPQFQGKASKRLHVMAKPIGAVCNIDCSYCYYLSKEDLLEYKKGCSPQMDDETLETYIRQYIEGQNTPEIIFSWQGGEPTLLGLDYFKKIVEFQKKYQPEGILISNDLQTNGTLLTDKWCEFLAENNFLVGLSIDGPEMLHNAYRTNKAGRGTFKQVMNAVELLHKHNVKFATLTCVNNLTSRNPLEVYRFLRDVVKSPQMQFIPIVEQKTFRTVAPQTEQIAAQLRQGDKRLIPGNKESIMEPWCVSDEAWGNFLIAVFDEWTQHDLGKVFVQYFEASVETWMGRKNPLCTLGEICGKGLAMEHNGDVFACDHYVYPEYKIGNIHNEELDTLAFSRKQQEFGFAKSKTLTTQCQKCEYKFACHGECPKNRFIKTRDGEPGLNYLCAGWKKFFAHADKSIAYILKMLGNPVQHGKYSDAKMQQVHQNAFPTKF”, the “soluble on expression in E. coli” value is reported as “not soluble”.
Turning to “MIKSLKQLAIQAGLEYLGEDVSIQTVAINSNEVRQDCLFVAIVANRDGHEFIPSAIANGAKAILVSKKQGLDIPQVVCGNTIKGLRALAKEYRKSLTMPIISLTGSCGKTSVKEMIVTLLGERKVHFTQGNLNNYLGVPMTILETPHDVDFAVIEAGTNVGGEIKAAADIIQPNIAMITNVGACHLENLKTLDGVMIEKGELLKALPRDGFCIVNLDDERIPNYAKLLECKKISCSMTNPKADILVLDYRATSNSYAFKIRIFSQEYDYQLPNIGKHNLFNSVLAIASVVAVGLEPKDFLQNTQNIKNYKGRFSTEKLSDKLTLIDDTYNASAGAVQAAIEDLAEFDGKKILAISSMRELGDEAENYHRKMGQWLKKANLDKIFLFGEKNLIDYVLAEYSNQNAKYYESKDELNNDLAKILDEYKSQSTKLTVKGARSFKMEEVVKFVKENL”, the “soluble on expression in E. coli” value was “not soluble”.
In the case of “MILKKDDRMYTKKPTIPENVIERAYKGKCTKEDALLLLEGNPFELFELANDLRAIAAGDTVSYVVNRNIYITNKCVGNCGFCAYRTEKGYILSIEEILKKAGDARKAGAVEVCVQGGYTPEADMEFYLEVIESLKAEYPDLCLHALSPMEVNYAAETSGMSVEEALRRLKKSGLDSLTGTSAEILSDRVRKIICPSKISTQQWIDTVTAAHKAGISTNATIMYGHVETLKERLDHVFTIREIQKETGGFTELIPMSFLPYNNPVGEKMLASGKFSSTGLEDLQLIAISRVILHTYVKNIQATWVKLGKKLAQVALQCGANDLGGTLMEDQISTASGGSHGEYVSPAEFEWMIKGAGRVPVQR”, the “soluble on expression in E. coli” value is “not soluble”.
The value for “MILQEAKIRAKELEIGAKSKYENETSKVIKEYESYLIKLEKQEAKNQQRLERETQQLEEERRRINHKQASLSGMIEELEKLKGDYRSKLTESLEILSRVAGLTQEEAKELALAKATEESRAQIAQIVRKYESEAKEEGRKRANYILAQATTRFAGEFAAERLINVVNLPNDELKGRIIGKEGRNIKTLEMLSGVDVIIDDTPGAIVLSSFNLYRRAIATRTIEALVEDGRIQPARIEEVYKKVEQEFEEKVLEEGEGIVLDMELGYVHPELKKLIGRLKYRASYGQNALGHSLEVANLAGVIAGELGGDVKLAKRAGLLHDIGKALTHDFGGSHVDLGAEVCSRYKEHPVVINAIFAHHGHEEAKSIESAAVCAADALSAARPGARREVLESFLKRVQEIEKIAMEKLGVRQAYAINAGREVRVIVNADLINDEESVLLAQEIAKEIETKVQYPGEIKVSVIREVRAVEFAK” was “not soluble”.
Turning to “MILTTTHEIEGRRIERYLGIVFGEAIVGANVLRDLLAQIRDIVGGRSGAYEAELRRARETALAEMAEAARRLGADAVVGVDLDYEVLGSGNSMLMVTASGTAVKLAP”, the “soluble on expression in E. coli” value was “soluble”.
In the case of “MILVTGFEPFGSLEHNPSQALLDLLPSEVDGKPLRKAVLPVDAEALGEALEDLHREGPKAVLHLGLAEDRPVLTLERLAVNLLDFPRPDNRGRVLEDLPIVPGGPLALPARFPVKPVLARWREAGIPGRPSLSAGSYLCNQAFYLSLYRLPEEVPVGFLHLPPDETLALKRPRPYVPLEVQARAVRLALEHL” it was “soluble”.
